# Reference: the supplement of paper PMC10567573
# B1: PRAME (parent)
# chain: KKLKIFAMPMQDIKMILKMVQLDS
# Variants of: B1
# Experiment: protein stability index of a GFP-peptide fusion (GPS, HEK-293T) (PSI 1-6); higher = more stable
# Settings: c terminus: a fixed tail appended
# 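Further: lentivirally expressed fusions sorted by FACS into six bins by GFP to DsRed ratio, PSI derived from sequencing read proportions per bin multiplied by bin number.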
row,Variant,protein stability index
1,KKLKIFAMPMQDIKMILLMVQLDS [K18L],3.04
2,KKLKIFAMPMQDIKMILWMVQLDS [K18W],3.98
3,KKLKIFAMPMQDIKMILHMVQLDS [K18H],2.65
4,KKLKIFAMPMQDIKMILAMVQLDS [K18A],3.37
5,KKLKIFAMPMQDIKMILMMVQLDS [K18M],2.67
6,KKLKIFAMPMQDIKMILEMVQLDS [K18E],3.69
7,KKLKIFAMPMQDIKMILGMVQLDS [K18G],3.49
8,KKLKIFAMPMQDIKMILRMVQLDS [K18R],3.54
9,KKLKIFAMPMQDIKMILQMVQLDS [K18Q],2.18
10,KKLKIFAMPMQDIKMILDMVQLDS [K18D],2.22
11,KKLKIFAMPMQDIKMILVMVQLDS [K18V],4.3
12,KKLKIFAMPMQDIKMILFMVQLDS [K18F],3.27
13,KKLKIFAMPMQDIKMILYMVQLDS [K18Y],2.62
14,KKLKIFAMPMQDIKMILTMVQLDS [K18T],2.42
15,KKLKIFAMPMQDIKMILSMVQLDS [K18S],2.19
16,KKLKIFAMPMQDIKMILPMVQLDS [K18P],1.56
17,KKLKIFAMPMQDIKMILNMVQLDS [K18N],1.99
18,KKLKIFAMPMQDIKPILKMVQLDS [M15P],1.81
19,KKLKIFAMPMQDIKNILKMVQLDS [M15N],1.59
20,KKLKIFAMPMQDIKDILKMVQLDS [M15D],2.22
21,KKLKIFAMPMQDIKHILKMVQLDS [M15H],3.17
22,KKLKIFAMPMQDIKQILKMVQLDS [M15Q],1
23,KKLKIFAMPMQDIKCILKMVQLDS [M15C],2.02
24,KKLKIFAMPMQDIKFILKMVQLDS [M15F],2.51

row,Variant,protein stability index
1,KKLKIFAMPMQDIKIILKMVQLDS [M15I],2.09
2,KKLKIFAMPMQDIKAILKMVQLDS [M15A],2.66
3,KKLKIFAMPMQDIKGILKMVQLDS [M15G],2.96
4,KKLKIFAMPMQDIKKILKMVQLDS [M15K],3.85
5,KKLKIFAMPMQDIKRILKMVQLDS [M15R],2.25
6,KKLKIFAMPMQDIKTILKMVQLDS [M15T],2.15
7,KKLKIFAMPMQDIKVILKMVQLDS [M15V],2.85
8,KKLKIFAMPMQDIKEILKMVQLDS [M15E],2.36
9,KKLKIFAMPMQTIKMILKMVQLDS [D12T],3.29
10,KKLKIFAMPMQEIKMILKMVQLDS [D12E],2.5
11,KKLKIFAMPMQQIKMILKMVQLDS [D12Q],4.16
12,KKLKIFAMPMQYIKMILKMVQLDS [D12Y],3.17
13,KKLKIFAMPMQNIKMILKMVQLDS [D12N],2.5
14,KKLKIFAMPMQCIKMILKMVQLDS [D12C],3.07
15,KKLKIFAMPMQMIKMILKMVQLDS [D12M],4.16
16,KKLKIFAMPMQRIKMILKMVQLDS [D12R],2.17
17,KKLKIFAMPMQLIKMILKMVQLDS [D12L],2.29
18,KKLKIFAMPMQAIKMILKMVQLDS [D12A],2.14
19,KKLKIFAMPMQIIKMILKMVQLDS [D12I],1.63
20,KKLKIFAMPMQWIKMILKMVQLDS [D12W],3.37
21,KKLKIFAMPMQKIKMILKMVQLDS [D12K],2.75
22,KKLKIFAMPMQFIKMILKMVQLDS [D12F],3.57
23,KKLKIFAMPMQPIKMILKMVQLDS [D12P],3.3
24,KKLKIFAMPMQDIKMILKQVQLDS [M19Q],2.89

row,Variant,protein stability index
1,KKLKIFAMPMQDIKMILKGVQLDS [M19G],2.15
2,KKLKIFAMPMQDIKMILKDVQLDS [M19D],2.13
3,KKLKIFAMPMQDIKMILKSVQLDS [M19S],2.44
4,KKLKIFAMPMQDIKMILKHVQLDS [M19H],2.59
5,KKLKIFAMPMQDIKMILKNVQLDS [M19N],2.21
6,KKLKIFAMPMQDIKMILKCVQLDS [M19C],3.53
7,KKLKIFAMPMQDIKMILKIVQLDS [M19I],2.81
8,KKLKIFAMPMQDIKMILKFVQLDS [M19F],2.46
9,KKLKIFAMPMQDIKMILKTVQLDS [M19T],3.38
10,KKLKIFAMPMQDIKMILKWVQLDS [M19W],2.46
11,KKLKIFAMPMQDIKMILKPVQLDS [M19P],1.69
12,KKLKIFAMPMQDIKMRLKMVQLDS [I16R],1.75
13,KKLKIFAMPMQDIKMYLKMVQLDS [I16Y],3.04
14,KKLKIFAMPMQDIKMDLKMVQLDS [I16D],1.73
15,KKLKIFAMPMQDIKMQLKMVQLDS [I16Q],1.6
16,KKLKIFAMPMQDIKMSLKMVQLDS [I16S],3.21
17,KKLKIFAMPMQDIKMWLKMVQLDS [I16W],2.79
18,KKLKIFAMPMQDIKMGLKMVQLDS [I16G],2.32
19,KKLKIFAMPMQDIKMNLKMVQLDS [I16N],1.23
20,KKLKIFAMPMQDIKMHLKMVQLDS [I16H],2.66
21,KKLKIFAMPMQDIKMCLKMVQLDS [I16C],2.5
22,KKLKIFAMPMQDIKMVLKMVQLDS [I16V],2.48
23,KKLKIFAMPMQDIKMFLKMVQLDS [I16F],3.41
24,KKLKIFAMPMQDIKMPLKMVQLDS [I16P],1.63

row,Variant,protein stability index
1,KKLKIFAMPMQDIKMKLKMVQLDS [I16K],1.69
2,KKLKIFAMPMQDIKMLLKMVQLDS [I16L],1.71
3,KKLKIFAMPMQDIKMTLKMVQLDS [I16T],3.06
4,KKLKIFAMPMQDIKMELKMVQLDS [I16E],1.47
5,KKLKIFAMPMQDIDMILKMVQLDS [K14D],3.25
6,KKLKIFAMPMQDIVMILKMVQLDS [K14V],2.44
7,KKLKIFAMPMQDIYMILKMVQLDS [K14Y],2.42
8,KKLKIFAMPMQDIIMILKMVQLDS [K14I],3.61
9,KKLKIFAMPMQDIQMILKMVQLDS [K14Q],2.64
10,KKLKIFAMPMQDIGMILKMVQLDS [K14G],2.88
11,KKLKIFAMPMQDIPMILKMVQLDS [K14P],3.66
12,KKLKIFAMPMQDITMILKMVQLDS [K14T],1.64
13,KKLKIFAMPMQDIRMILKMVQLDS [K14R],1.65
14,KKLKIFAMPMQDISMILKMVQLDS [K14S],1.59
15,KKLKIFAMPMQDIHMILKMVQLDS [K14H],3.17
16,KKLKIFAMPMQDICMILKMVQLDS [K14C],2.52
17,KKLKIFAMPMQDIEMILKMVQLDS [K14E],2.98
18,KKLKIFAMPMQDINMILKMVQLDS [K14N],3.16
19,KKLKIFAMPMQDIKMILKMAQLDS [V20A],3.51
20,KKLKIFAFPMQDIKMILKMVQLDS [M8F],2.88
21,KKLKIFARPMQDIKMILKMVQLDS [M8R],3.05
22,KKLKIFAVPMQDIKMILKMVQLDS [M8V],3.54
